Source: paper PMC5779224, “Autoinhibition of ankyrin-B/G membrane target bindings by intrinsically disordered segments from the tail regions” (eLife, 2017)
One block for each binder: values may come before it.

What was measured:
Details in all cases: both partners purified
[1] = molecular target: T1, AnkG 38–855 (AnkG MBD-AI-c protein; MBD + partial AI-c) (rat, UniProt O70511-1 38-855); assay: ITC; VP-ITC MicroCal, 25 °C; proteins in 50 mM Tris-HCl pH 7.8, 1 mM DTT, 1 mM EDTA with 100 mM or 500 mM NaCl as required; who was titrated is not told
T1 construct: numbers count on: rat AnkG NM_001033984.1 (MBD-UPA); also called AnkG WT; source: E. coli BL21 (DE3), purified (Ni2+-NTA, size exclusion)
T1 sequence (looked up): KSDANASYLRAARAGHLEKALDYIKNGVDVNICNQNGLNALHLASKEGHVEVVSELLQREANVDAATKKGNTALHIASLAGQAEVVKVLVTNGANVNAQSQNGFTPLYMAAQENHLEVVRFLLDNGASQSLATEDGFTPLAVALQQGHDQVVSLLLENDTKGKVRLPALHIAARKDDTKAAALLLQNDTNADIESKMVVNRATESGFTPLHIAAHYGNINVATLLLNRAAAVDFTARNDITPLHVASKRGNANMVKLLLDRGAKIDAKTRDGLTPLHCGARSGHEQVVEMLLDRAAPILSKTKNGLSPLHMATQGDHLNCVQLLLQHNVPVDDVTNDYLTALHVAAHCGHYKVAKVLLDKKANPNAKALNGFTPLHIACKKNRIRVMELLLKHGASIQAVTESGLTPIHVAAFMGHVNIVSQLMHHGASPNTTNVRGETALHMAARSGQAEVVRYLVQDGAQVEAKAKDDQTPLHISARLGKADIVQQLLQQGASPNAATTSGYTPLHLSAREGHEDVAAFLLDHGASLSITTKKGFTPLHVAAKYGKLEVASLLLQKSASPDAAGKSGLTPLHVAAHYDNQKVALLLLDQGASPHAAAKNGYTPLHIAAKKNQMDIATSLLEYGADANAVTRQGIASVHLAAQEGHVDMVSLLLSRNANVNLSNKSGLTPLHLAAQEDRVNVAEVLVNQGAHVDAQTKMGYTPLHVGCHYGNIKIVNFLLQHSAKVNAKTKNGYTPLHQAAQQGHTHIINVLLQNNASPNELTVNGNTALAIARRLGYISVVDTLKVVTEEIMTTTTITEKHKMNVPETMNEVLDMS

[2] = molecular target: T2, AnkB 28–847 (MBD + partial AI-c) (human, UniProt Q01484-2 28-847); assay: as above
T2 construct: ankyrin-B (AnkB), human 220 kDa isoform, residues 28-847: MBD and a short 20-residue linker; numbers count on: human 220 kDa AnkB NM_020977.3; also called extended MBD with a short 20-residue linker; source: E. coli BL21 (DE3), purified (Ni2+-NTA, size exclusion)
T2 sequence (looked up): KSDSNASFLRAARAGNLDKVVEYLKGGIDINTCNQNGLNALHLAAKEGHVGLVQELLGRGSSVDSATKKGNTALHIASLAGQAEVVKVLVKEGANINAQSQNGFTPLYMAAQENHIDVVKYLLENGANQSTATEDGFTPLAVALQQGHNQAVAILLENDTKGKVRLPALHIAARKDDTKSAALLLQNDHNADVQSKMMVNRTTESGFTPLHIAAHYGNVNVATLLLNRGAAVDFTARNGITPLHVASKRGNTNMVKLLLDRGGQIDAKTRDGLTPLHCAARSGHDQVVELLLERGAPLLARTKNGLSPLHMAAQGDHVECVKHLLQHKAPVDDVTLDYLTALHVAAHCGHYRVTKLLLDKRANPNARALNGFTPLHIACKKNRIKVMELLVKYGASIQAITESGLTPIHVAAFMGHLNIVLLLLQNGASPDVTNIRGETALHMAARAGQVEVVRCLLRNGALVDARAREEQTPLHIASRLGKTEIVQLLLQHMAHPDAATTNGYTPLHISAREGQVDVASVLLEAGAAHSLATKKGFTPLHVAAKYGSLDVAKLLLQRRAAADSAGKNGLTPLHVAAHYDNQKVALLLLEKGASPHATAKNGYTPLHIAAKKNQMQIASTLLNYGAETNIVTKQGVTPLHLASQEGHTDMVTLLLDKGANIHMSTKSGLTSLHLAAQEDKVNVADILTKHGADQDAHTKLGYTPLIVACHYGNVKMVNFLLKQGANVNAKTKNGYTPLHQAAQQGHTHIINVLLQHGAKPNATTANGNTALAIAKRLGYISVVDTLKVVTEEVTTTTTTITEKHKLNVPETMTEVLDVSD

[3] = molecular target: T3, AnkB_MBD (AnkB ANK repeats only, aa 28–827) (human, UniProt Q01484-2 28-827); assay: ITC; VP-ITC MicroCal, 25 °C; buffer containing 500 mM NaCl, due to poor quality of AnkB 28-827 in 100 mM NaCl buffer
T3 construct: ankyrin-B (AnkB), human 220 kDa isoform, residues 28-827: the 24 ANK repeats (MBD), no linker; numbers count on: human 220 kDa AnkB NM_020977.3; Poor quality in 100 mM NaCl buffer; also called AnkB 28–827; source: E. coli BL21 (DE3), purified (Ni2+-NTA, size exclusion)
T3 sequence (looked up): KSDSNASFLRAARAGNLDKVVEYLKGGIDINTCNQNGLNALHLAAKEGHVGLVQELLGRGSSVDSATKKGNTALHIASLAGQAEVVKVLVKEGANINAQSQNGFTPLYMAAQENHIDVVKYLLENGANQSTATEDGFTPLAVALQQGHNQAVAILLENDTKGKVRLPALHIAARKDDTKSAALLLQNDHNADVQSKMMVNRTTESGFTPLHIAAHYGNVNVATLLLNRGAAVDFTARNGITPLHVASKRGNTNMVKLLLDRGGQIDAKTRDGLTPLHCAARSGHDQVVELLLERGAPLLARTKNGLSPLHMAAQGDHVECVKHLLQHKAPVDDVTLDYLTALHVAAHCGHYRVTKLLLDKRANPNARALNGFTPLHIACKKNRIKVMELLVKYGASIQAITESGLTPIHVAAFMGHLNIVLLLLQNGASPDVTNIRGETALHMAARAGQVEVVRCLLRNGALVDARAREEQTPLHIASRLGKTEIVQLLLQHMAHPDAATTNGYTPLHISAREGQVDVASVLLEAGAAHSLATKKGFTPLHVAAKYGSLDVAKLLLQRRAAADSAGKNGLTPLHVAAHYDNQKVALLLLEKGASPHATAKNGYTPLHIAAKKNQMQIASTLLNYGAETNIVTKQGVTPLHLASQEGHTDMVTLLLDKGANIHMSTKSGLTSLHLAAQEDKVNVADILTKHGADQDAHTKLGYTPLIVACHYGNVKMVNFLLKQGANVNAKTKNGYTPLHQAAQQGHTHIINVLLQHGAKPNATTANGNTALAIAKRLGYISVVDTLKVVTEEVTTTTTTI

[4] = molecular target: T3, AnkB_MBD (AnkB ANK repeats only, aa …); assay: ITC; VP-ITC MicroCal, 25 °C; proteins in 50 mM Tris-HCl pH 7.8, 1 mM DTT, 1 mM EDTA with 100 mM or 500 mM NaCl as required; who was titrated is not told

B1: AnkG_AI-b (aa 875–903) (domain or fragment, rat, UniProt O70511-1 875-903, looked up)
chain: SDGEEGEDAITGDTDKYLGPQDLKELGDD
notes: numbers count on: rat AnkG NM_001033984.1 (MBD-UPA); source: E. coli BL21 (DE3), purified (Ni2+-NTA, size exclusion)
binding result [1]: binds

B2: AnkB entire linker (aa 828–965) (domain or fragment, human, UniProt Q01484-2 828-965, looked up)
chain: TEKHKLNVPETMTEVLDVSDEEGDDTMTGDGGEYLRPEDLKELGDDSLPSSQFLDGMNYLRYSLEGGRSDSLRSFSSDRSHTLSHASYLRDSAVMDDSVVIPSHQVSTLAKEAERNSYRLSWGTENLDNVALSSSPIH
notes: numbers count on: human 220 kDa AnkB NM_020977.3; also called Linker (contains AI-c + AI-b); AnkB linker region; source: E. coli BL21 (DE3), purified (Ni2+-NTA, size exclusion)
Kd [2]: ~4200 nM
Kd [3]: ~44 nM

Continued, values first:

binding result [4]: binds
B3: AnkB_AI-c Asn834Lys (domain or fragment, human, UniProt Q01484-2 828-852, looked up)
chain: TEKHKLKVPETMTEVLDVSDEEGDD
notes: numbers count on: human 220 kDa AnkB NM_020977.3; source: E. coli BL21 (DE3), purified (Ni2+-NTA, size exclusion)

binding result [4]: binds
B4: AnkB_AI-c Met839Gln (domain or fragment, human, UniProt Q01484-2 828-852, looked up)
chain: TEKHKLNVPETQTEVLDVSDEEGDD
notes: as for B3

binding result [4]: binds
B5: AnkB_AI-c Leu843Gln (domain or fragment, human, UniProt Q01484-2 828-852, looked up)
chain: TEKHKLNVPETMTEVQDVSDEEGDD
notes: as for B3
